According to patent US20250092426, “CAS ENDONUCLEASES AND RELATED METHODS” (Flagship Pioneering Innovations VII, LLC, published 2025):

Target: T1, CasEnd-12 (synthetic construct)
T1 chain: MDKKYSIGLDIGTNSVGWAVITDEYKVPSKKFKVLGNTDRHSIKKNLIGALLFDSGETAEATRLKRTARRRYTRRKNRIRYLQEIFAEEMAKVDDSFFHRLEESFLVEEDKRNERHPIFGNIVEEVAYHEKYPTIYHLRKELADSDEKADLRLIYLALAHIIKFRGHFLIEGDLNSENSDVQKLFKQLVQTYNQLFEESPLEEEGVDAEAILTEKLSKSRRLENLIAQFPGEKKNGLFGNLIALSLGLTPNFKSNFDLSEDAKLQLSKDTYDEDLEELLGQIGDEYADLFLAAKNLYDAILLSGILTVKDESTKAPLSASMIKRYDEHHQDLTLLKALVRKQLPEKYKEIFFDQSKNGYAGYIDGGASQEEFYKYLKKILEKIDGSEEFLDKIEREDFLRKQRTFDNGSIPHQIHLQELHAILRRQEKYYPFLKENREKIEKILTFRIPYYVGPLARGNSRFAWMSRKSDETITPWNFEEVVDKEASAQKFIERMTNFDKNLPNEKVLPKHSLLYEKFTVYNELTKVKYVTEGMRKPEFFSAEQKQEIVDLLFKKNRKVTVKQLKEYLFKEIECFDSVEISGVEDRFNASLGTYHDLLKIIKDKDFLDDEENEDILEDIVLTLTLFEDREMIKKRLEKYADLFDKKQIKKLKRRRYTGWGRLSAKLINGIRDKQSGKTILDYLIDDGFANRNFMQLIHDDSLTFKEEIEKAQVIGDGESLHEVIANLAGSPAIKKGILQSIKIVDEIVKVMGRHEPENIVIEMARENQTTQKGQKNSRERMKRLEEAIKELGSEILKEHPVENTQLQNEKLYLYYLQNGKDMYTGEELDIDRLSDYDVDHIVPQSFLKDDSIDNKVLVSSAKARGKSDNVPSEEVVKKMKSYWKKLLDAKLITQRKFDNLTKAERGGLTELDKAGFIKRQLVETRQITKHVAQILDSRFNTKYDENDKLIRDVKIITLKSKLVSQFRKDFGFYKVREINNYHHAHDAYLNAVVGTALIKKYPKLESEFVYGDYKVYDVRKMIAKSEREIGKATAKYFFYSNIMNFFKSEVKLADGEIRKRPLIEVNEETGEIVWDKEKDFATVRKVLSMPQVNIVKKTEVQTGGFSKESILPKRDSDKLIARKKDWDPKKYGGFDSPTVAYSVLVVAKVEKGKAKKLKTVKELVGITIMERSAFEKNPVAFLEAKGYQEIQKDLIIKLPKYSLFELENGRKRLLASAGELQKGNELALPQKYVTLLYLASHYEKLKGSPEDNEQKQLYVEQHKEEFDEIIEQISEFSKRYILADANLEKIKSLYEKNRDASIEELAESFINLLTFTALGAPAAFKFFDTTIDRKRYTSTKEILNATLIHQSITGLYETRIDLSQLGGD
Assay: cell_activity; +++; HEK293T; PAM not stated
Outline: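 BFP-to-GFP conversion via reverse transcriptase fusion with each Cas endonuclease plus template RNA: 200 ng of each plasmid nucleofected into 250,000 BFP-expressing HEK293T cells (program DS-150). Percent GFP+ cells by flow cytometry at day 4 measured editing.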

B1: BFP-to-GFP template RNA ; BFP reporter protospacer (ssRNA ; dsDNA)
RNA: GCCGAAGCACUGCACGCCGUGUUUUAGAGCUAGAAAUAGCAAGUUAAAAUAAGGCUAGUCCGUUAUCAACUUGAAAAAGUGGCACCGAGUCGGUGCACCCUGACGUACGGCGUGCAGUGCUU
DNA 1: GCCGAAGCACTGCACGCCGT
DNA 2: ACGGCGTGCAGTGCTTCGGC
  activity: ≥ 100 % of reference
